Test results published in patent US20080206264A1.
Bridge positions count the residues as written; N and C are the ends. Ends that are not written are not given here.

Biological target: 447-52D Fv fragment
Test: fluorescence quenching of 447Fv upon titration with the peptide

CRKSIHCGPGRCFYTTGC (disulfide 1-18, 7-12) [R5A-M1 peptide (disulfide-constrained R5A mimic peptide 1)] gave a Kd of 10 nM.
